Consider four substances from patent publication US20230322888A1.

Holding throughout (assay): cell-based or functional assay
The target of assay [1] is mouse GLP1 receptor (mouse) (UniProt O35659).
For assay [2], the target named is human GLP1 receptor (human) (UniProt P43220).
Assay [3] has as its target cynomolgus monkey GLP1 receptor (cynomolgus monkey) (UniProt F8V479).

Chain of Albiglutide (chain): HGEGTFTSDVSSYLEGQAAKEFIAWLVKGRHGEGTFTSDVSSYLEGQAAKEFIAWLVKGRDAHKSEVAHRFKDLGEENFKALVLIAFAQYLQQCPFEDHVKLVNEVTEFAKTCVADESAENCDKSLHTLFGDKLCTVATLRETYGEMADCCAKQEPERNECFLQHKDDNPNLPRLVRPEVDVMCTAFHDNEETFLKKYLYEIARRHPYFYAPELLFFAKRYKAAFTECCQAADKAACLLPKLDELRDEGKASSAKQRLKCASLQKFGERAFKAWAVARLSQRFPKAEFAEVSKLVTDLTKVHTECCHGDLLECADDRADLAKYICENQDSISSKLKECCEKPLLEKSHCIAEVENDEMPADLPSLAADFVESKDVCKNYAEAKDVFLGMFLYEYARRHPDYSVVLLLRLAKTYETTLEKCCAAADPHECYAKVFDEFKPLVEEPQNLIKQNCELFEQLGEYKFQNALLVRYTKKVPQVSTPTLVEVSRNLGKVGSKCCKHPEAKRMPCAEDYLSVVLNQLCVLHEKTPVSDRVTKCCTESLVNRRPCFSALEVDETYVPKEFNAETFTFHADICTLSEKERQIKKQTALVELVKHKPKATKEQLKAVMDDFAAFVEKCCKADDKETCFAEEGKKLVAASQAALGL
Chain of Dulaglutide (Fc fusion) (chain): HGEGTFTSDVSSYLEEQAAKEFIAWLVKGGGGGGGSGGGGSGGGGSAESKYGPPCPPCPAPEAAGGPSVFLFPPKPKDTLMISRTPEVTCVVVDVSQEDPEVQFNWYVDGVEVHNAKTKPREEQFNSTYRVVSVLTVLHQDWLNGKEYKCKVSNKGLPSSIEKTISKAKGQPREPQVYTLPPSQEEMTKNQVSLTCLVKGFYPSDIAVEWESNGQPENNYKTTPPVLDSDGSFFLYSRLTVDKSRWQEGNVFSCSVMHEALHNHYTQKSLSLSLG
Chain of mouse GLP1 receptor (mouse) (O35659 22-463): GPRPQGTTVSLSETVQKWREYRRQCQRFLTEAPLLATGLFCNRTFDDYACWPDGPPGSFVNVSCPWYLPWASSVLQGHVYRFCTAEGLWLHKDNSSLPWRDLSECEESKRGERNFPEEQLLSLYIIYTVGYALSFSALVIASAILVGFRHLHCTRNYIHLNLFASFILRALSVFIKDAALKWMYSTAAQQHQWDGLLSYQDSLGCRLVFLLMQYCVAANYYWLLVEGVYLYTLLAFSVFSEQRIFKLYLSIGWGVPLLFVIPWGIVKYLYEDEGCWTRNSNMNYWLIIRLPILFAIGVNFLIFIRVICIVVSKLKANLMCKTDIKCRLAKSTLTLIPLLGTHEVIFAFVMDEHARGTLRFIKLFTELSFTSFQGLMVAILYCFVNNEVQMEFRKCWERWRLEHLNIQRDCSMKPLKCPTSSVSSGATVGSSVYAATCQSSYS
Chain of cynomolgus monkey GLP1 receptor (cynomolgus monkey) (F8V479 entry or part of it): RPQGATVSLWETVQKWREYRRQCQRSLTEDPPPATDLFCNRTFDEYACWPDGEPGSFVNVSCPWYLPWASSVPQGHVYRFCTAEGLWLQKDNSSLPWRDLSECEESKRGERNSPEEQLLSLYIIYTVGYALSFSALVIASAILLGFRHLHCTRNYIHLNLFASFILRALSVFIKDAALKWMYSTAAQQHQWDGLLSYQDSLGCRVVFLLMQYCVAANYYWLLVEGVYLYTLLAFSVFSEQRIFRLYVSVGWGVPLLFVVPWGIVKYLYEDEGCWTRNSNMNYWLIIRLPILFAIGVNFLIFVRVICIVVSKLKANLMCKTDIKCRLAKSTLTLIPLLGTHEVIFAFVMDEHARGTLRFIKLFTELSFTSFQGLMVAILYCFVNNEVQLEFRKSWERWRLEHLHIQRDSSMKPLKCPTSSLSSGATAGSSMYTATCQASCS
Chain of human GLP1 receptor (human) (P43220 24-463): as the sequence (F8V479 entry or part of it) above, with N112S, S120F, G202S, V205L, F237L, R241W, V249I counted along it

In assay [1], Dulaglutide (Fc fusion) yielded a cAMP induction mGLP1R EC50 of 0.02 nM. The same substance had a cAMP induction hGLP1R EC50 in assay [2] of 0.038 nM. Besides, the cAMP induction CGLP1R EC50 in assay [3] came out at 0.045 nM.

For Albiglutide, the cAMP induction mGLP1R EC50 in assay [1] was 1.49 nM. Besides, in assay [2], the cAMP induction hGLP1R EC50 was 0.981 nM. Further, in assay [3], the cAMP induction CGLP1R EC50 was found to be 1.76 nM.

With Liraglutide (peptide), in assay [1], the cAMP induction mGLP1R EC50 turned out to be 0.052 nM. Besides, the cAMP induction CGLP1R EC50 in assay [3] is 0.079 nM.

Regarding “GLP1 (from UniProt P01275 98-127) (peptide)”, the cAMP induction mGLP1R EC50 in assay [1] was 0.012 nM.
